The supplement of paper PMC9170038

Tested on: K4 kissing-loop RNA reporter
Assay: apparent KD of K4 kissing-loop reporter; higher = weaker reporter binding
Details: Eterna round: R107
Procedure: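 RNA-MaP round R107: designed RNA switches with theophylline, tryptophan, arginine or FMN aptamers are transcribed on-chip within common flanks. They are titrated with a labelled K4 kissing-loop RNA reporter in RNA-MaP buffer (100 mM Tris pH 7.5, 80 mM KCl, 4 mM MgCl2), without ligand or with the indicated ligand. Median apparent KD per design.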

[1] = input ligand: theophylline 20 uM
[2] = input ligand: tryptophan 2.4 mM
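Further: bound reporter read as fluorescence of individual clusters on recovered sequencing chips by microscopy, with normalized cluster intensities fitted with a binding model.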

Sequence	apparent KD of K4 kissing-loop reporter (input ligand: FMN 200 uM) [µM]	apparent KD of K4 kissing-loop reporter (input ligand: arginine 13.2 mM) [µM]	apparent KD of K4 kissing-loop reporter (input ligand: none) [µM]	apparent KD of K4 kissing-loop reporter [1] [µM]	apparent KD of K4 kissing-loop reporter [2] [µM]
AAAUUUUCAAGUGAUACCAGACAUCUCUAUUACAUUAAUAUAGCUAAGUGAUGUUUAGCAGUCCCUUGGCAGCACAAUUUAAUUA [JR_SSTheophyB_Sub013]	0.255	0.202	0.297	0.337	0.215
GGUAGCAUGGCGGCCGCCACUAUAAAGAAUCCAAAGGAUUCUAGGUAGUGAUGUUACCAUAGCUAUAGGACCGGGCCAUGCUACC	0.156	0.12	0.174	0.121	0.0565
UGCUUAAUGGAAGGAUAUUAGGGUUCGACCGCGUAUCAUUGUUAGUCUGGCCAGUGAUGUUGGCCUUAAGAAGGUCCGCUACGGU [theeternabot_exclusion_KL_FMN_B_27]	0.207	0.201	0.171	0.204	0.13
ACUUAUUGUGUCGAUACCAGCAGGUGACGACGCCUCAUGGCUGACGAGUGAUGUUCGACUUGCCCUUGGCAGCGACAUACGCCGG [theeternabot_sameState_KL_Theo_B_12]	0.354	0.228	0.356	0.365	0.31
ACGAUCAUGUCGGCCGCCACUGAGAGUAGUGAUGUUACUUUUAUGUUUUAGUUAUAAUAUUUGAACAGGACCGGGACAUGUUCGU [JR_ExcTryptoB_Sub023]	0.103	0.0848	0.0853	0.0801	0.0922
CGGCGCGGCGCGGCCGCCACUGCGCCUGGGUGCUCGCCGAGUGAUGUUCGUCGGCGGUUGGGUGGCAGGACCGGGUGCCGGCCCG [BDazzled - #18 SS Tryptophan B]	0.93	0.703	0.827	1.03	0.768
CAGAAGCAUUCGGCCGCCACUCCAGUGAUGUUGGAGCGGGAGGGCCUUAAACCUCGAGGCUGCUGGAGGACCGGGAAUGUUGAGG [Beerso]	0.166	0.164	0.168	0.173	0.269
GCAGUGAUGUUGCGCAGGUACAGUGGAGUGCGAGGACCGGUACGGCCGCCACUCGUACAGAACUAGCUAAUGUAUGGAUAGGUGA [#11 K4 Tryptophan A Same State]	0.354	0.329	0.368	0.47	0.312
